Target: C-terminally strep-tagged wild-type GRK5 (human) (UniProt P34947)
Experiment: ITC

UniProt P34947, sequence (P34947 whole entry): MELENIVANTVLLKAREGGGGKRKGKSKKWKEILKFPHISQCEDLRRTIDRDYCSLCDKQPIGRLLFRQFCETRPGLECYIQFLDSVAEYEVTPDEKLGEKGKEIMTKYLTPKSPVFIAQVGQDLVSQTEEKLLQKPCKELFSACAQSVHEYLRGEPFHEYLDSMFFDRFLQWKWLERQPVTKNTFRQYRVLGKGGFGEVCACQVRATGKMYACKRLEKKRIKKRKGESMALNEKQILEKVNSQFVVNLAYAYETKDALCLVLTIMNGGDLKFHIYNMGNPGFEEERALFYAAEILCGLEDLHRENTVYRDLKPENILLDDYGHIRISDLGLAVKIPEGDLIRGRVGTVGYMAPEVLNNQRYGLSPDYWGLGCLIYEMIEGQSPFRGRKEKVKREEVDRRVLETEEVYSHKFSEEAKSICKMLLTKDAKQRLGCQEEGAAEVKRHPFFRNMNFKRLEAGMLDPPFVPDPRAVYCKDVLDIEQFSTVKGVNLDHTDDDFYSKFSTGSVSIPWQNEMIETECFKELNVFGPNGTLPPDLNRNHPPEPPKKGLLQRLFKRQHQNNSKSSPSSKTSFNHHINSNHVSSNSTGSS

Substance “wild-type rat calmodulin (from UniProt P0DP29 1-149) (natural protein; other documents disagree on this pair)” has a Kd of 0.278 µM and a dH of 4.3 kcal/mol.

Source: PMC7855534
